# Assay results as given in US20260042831A1 (XENTRIA, published 2026).
# Where “and” joins values, the source holds several entries; their conditions need not be identical. Identical values can stand only once.
# T1: TNFα from rat (rat, UniProt P16599 80-235)
# T1 sequence (looked up): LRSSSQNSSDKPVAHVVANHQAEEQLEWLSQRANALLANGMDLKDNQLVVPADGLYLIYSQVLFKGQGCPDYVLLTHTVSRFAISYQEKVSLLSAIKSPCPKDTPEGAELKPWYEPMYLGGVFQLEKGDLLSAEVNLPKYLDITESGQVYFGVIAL
# B1: XTMAB-16 (antibody, human IgG1, kappa)
# heavy: not shown
# light: DILLTQSPAILSVSPGERVSFSCRASQFVGSSIHWYQQRTNGSPRLLIKYASESMSGIPSRFSGSGSGTDFTLSINTVESEDIADYYCQQSHSWPFTFGSGTNLEVKRTVAAPSVFIFPPSDEQLKSGTASVVCLLNNFYPREAKVQWKVDNALQSGNSQESVTEQDSKDSTYSLSSTLTLSKADYEKHKVYACEVTHQGLSSPVTKSFNRGEC
# notes: The general description says the antibody is sialylated with N-acetylneuraminic acid (Asn 297 in embodiments) and glycosylated at Asn 300; All batches (A-H); also called XTMB-16
# What was measured:
# His-tagged FcγRIIIa = target: T2, His-tagged FcγRIIIa (UniProt P08637 17-208, limits assumed); assay: Octet QK384, steady-state KD from binding curves; range stated for the batches
# T2 construct: His-tagged and captured on anti-penta-His biosensors; also called CD16
# T2 sequence (P08637 17-208 limits assumed): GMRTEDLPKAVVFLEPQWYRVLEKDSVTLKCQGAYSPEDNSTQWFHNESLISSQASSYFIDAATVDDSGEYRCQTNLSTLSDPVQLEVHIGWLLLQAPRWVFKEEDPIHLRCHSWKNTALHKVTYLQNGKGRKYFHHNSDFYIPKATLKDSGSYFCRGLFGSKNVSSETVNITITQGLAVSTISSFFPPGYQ
# TNFα from rat = target: T1, TNFα from rat; assay: ELISA, cross-species binding studies
# [1] = target: TNFα from cynomolgus monkey (cynomolgus monkey, UniProt P79337 77-233, limits assumed); assay: ELISA, cross-species binding studies
# TNFα from cynomolgus monkey, sequence (P79337 77-233 limits assumed): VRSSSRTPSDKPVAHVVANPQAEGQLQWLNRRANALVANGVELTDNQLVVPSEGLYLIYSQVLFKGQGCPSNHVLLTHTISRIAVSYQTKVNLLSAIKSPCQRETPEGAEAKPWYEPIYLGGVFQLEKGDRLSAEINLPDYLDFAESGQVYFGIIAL
# TNFα from dog = TNFα from dog (dog, UniProt P51742 77-233); assay: ELISA, cross-species binding studies
# TNFα from dog, sequence (P51742 77-233 limits assumed): as the sequence (P79337 77-233 limits assumed) above, with R2K, Q21E, N30S, V37L, V49I, E53D, N72T, I83F, A109T, D140N counted along it
# TNFα from rhesus monkey = TNFα from rhesus monkey (rhesus monkey, UniProt P48094 77-233); assay: ELISA, cross-species binding studies
# TNFα from rhesus monkey, sequence (P48094 77-233 limits assumed): as the sequence (P79337 77-233 limits assumed) above, with V37L counted along it
# FcγRI [2] = target: T3, FcγRI (UniProt P12314 16-288, limits assumed); assay: Octet QK384, FcγRI on Ni-NTA biosensors; range stated for the batches
# T3 construct: It was immobilized on Ni-NTA biosensors, which implies a His tag; The ELISA paragraph calls it 'His tab-labeled recombinant purified FcγRI'; also called CD64
# T3 sequence (P12314 16-288 limits assumed): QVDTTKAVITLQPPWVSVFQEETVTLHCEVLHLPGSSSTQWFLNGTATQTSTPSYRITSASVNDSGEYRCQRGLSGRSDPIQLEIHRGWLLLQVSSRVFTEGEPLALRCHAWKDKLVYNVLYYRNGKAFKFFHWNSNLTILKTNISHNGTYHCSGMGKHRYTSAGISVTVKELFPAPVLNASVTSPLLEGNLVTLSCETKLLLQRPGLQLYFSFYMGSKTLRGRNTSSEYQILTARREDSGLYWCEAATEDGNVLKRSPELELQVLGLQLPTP
# FcγRI [3] = target: T3, FcγRI; assay: Octet QK384, FcγRI on Ni-NTA biosensors, 7 XTMAB-16 concentrations, 1:1 model fit
binder,measurement,setting,value
B1,Kd,His-tagged FcγRIIIa,300 nM
same,binding result,TNFα from rat,no binding
same,binding result,[1],no binding
same,binding result,TNFα from dog,no binding
same,binding result,TNFα from rhesus monkey,no binding
same,Kd,FcγRI [2],0.5 nM and 0.9 nM
same,Kd,FcγRI [3],0.68 nM and 0.63 nM
